Where no end group is shown, it is not given here. The star is where a group is joined. Biotin = O=C1N[C@H]2[C@H](CS[C@H]2CCCCC(=O)*)N1
T1: NS0-derived recombinant mouse DDR2-Fc chimera protein (mouse, UniProt Q62371 24-399)
T1 construct: discoidin domain receptor 2 (DDR2), mouse, ectodomain Gln24-Arg399; also called 7479-DR; source: bought: R&D Systems (7479-DR), NS0-derived; not shown: Fc (mouse IgG2A, Glu98-Lys330), C-terminal, kept
T1 sequence (looked up): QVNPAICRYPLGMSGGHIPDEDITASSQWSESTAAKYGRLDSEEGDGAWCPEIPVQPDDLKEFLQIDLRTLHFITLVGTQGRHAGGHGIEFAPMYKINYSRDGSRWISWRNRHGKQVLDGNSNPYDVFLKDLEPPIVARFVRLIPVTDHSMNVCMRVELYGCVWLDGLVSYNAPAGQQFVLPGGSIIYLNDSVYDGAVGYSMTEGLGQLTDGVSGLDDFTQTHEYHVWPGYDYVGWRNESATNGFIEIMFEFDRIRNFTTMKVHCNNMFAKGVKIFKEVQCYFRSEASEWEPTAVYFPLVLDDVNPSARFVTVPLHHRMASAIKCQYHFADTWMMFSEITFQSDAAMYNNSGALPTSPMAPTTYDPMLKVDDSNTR

B1: Recombinant human DDR2 possessing the ectodomain of DDR2 (Gln24-Arg399) with 6 × His-tag on C-terminal (domain or fragment, UniProt Q16832 24-399, looked up)
chain: QVNPAICRYPLGMSGGQIPDEDITASSQWSESTAAKYGRLDSEEGDGAWCPEIPVEPDDLKEFLQIDLHTLHFITLVGTQGRHAGGHGIEFAPMYKINYSRDGTRWISWRNRHGKQVLDGNSNPYDIFLKDLEPPIVARFVRFIPVTDHSMNVCMRVELYGCVWLDGLVSYNAPAGQQFVLPGGSIIYLNDSVYDGAVGYSMTEGLGQLTDGVSGLDDFTQTHEYHVWPGYDYVGWRNESATNGYIEIMFEFDRIRNFTTMKVHCNNMFAKGVKIFKEVQCYFRSEASEWEPNAISFPLVLDDVNPSARFVTVPLHHRMASAIKCQYHFADTWMMFSEITFQSDAAMYNNSEALPTSPMAPTTYDPMLKVDDSNTR
notes: discoidin domain receptor 2 (DDR2), human, ectodomain Gln24-Arg399; also called sDDR2; sDDR; source: bought: R&D Systems (2538-DR); not shown: 6xHis, C-terminal, kept

How the values were obtained:
Conditions in all cases: both partners purified
human C1q protein = molecular target: T2, human C1q protein (human, UniProt P02745 23-245; P02746 28-253; P02747 29-245); experiment: SPR; Biacore 3000; sDDR2 immobilised on CM5 chip; C1q 0, 2.5, 5, 10, 20, 40 μg/mL as analyte; 10 mM HEPES pH 7.4, 25 °C, 10 μL/min
T2 construct: complement C1q subcomponent subunit A, human; complement C1q subcomponent subunit B, human; complement C1q subcomponent subunit C, human; the bought protein is purified from human serum; source: bought: Sigma-Aldrich (C1740); for stimulation of cells Complement Technologies (A099); copies: + +

[1] = molecular target: B1; experiment: ELISA; C1qA peptide or control peptide coated at 8 μg/mL; sDDR2 (0.1, 0.5, 2, 8 μg/mL) added, RT, 2 h; detected with AP-conjugated anti-6x-His
[2] = molecular target: T1, NS0-derived recombinant mouse DDR2-Fc …; experiment: far-Western, overlay or dot blot; DDR2-Fc, DDR1-Fc or Fc (20 μg per spot) blotted on nitrocellulose; biotinylated C1qA peptide (200 nM) in 3% skim milk, RT, 2 h; detected with streptavidin

T2 sequence (P02745 23-245, chain 1 of 3): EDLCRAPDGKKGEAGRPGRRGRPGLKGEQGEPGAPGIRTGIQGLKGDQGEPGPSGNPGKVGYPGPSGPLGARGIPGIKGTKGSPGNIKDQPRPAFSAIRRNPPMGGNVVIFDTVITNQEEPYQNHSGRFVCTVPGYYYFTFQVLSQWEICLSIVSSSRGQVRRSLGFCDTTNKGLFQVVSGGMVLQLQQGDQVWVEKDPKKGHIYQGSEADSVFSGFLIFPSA
T2 sequence (P02746 28-253, chain 2 of 3): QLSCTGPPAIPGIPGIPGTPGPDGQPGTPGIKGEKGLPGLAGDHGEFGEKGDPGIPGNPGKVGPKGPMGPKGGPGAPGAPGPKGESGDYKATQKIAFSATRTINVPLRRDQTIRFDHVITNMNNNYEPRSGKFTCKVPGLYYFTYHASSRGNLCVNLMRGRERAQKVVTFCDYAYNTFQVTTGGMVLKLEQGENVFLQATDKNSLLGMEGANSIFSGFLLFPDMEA
T2 sequence (P02747 29-245, chain 3 of 3): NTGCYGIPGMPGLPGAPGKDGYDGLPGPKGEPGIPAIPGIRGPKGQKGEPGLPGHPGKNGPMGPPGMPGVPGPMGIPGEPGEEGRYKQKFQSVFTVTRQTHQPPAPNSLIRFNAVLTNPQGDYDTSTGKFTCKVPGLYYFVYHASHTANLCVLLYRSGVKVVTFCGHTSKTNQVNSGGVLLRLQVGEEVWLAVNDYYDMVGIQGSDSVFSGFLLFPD

| Kd (human C1q protein) | binding result [1] | binding result [2] | Binder |
| --- | --- | --- | --- |
| 183 nM |  |  | B1 |
|  | binds | binds | Biotin-GSKGEQGEPGAPGI (first two residues of the printed peptide; also called C1q collagen tail peptide; biotinylated C1qA peptide; source: synthetic peptide (GenScript)) [C1qA peptide (Biotin-GSKGEQGEPGAPGI)] |
